The text below walks through data of PMC9023278.

The series concerns the target T1, EnrR (crystal) (Edwardsiella piscicida EIB202, UniProt A0AAQ3C0I8 1-90).
T1 sequence: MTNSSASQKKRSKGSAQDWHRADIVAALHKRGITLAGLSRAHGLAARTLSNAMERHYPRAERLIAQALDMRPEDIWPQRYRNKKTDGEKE
Description: X-ray crystallography.

B1: DNA1 (dsDNA)
DNA 1: CGAAATATCTATAGATATTTCG
DNA 2: CGAAATATCTATAGATATTTCG
In the case of B1, the binding result is reported as “binds”.
